These binders were tested against acetylcholine receptor (assay: SPR, receptor immobilized, peptide 10 uM).

Binder	Binding affinity (RU)
KIHFRK [6mer-2-874]	33
KHTEKK [6mer-2-857]	20
KTWVRR [6mer-2-886]	13
REMPKR [6mer-2-871]	31
KCMVRR [6mer-2-885]	17
KEADK [5mer-750]	13
KDTEKK [6mer-2-881]	33
KTSMKR [6mer-2-850]	16
RCDWR [5mer-756]	18
KNWGRR [6mer-2-873]	11
KEPMRR [6mer-2-856]	14
RNCERR [6mer-2-852]	28
KMTMKK [6mer-2-884]	11
KYWEKK [6mer-2-867]	32
KPKMRR [6mer-2-842]	22
RDPKKK [6mer-2-844]	22
KTHFRK [6mer-2-872]	28
KHTWR [5mer-749]	24
RTPAKR [6mer-2-882]	15
KMTEKK [6mer-2-870]	21
RFSFKR [6mer-2-846]	30
RNKVR [5mer-1054]	21
RTMDRR [6mer-2-879]	19
RCNWKR [6mer-2-854]	23
REMIKR [6mer-2-855]	19
KAWVK [5mer-752]	26
RHTFKK [6mer-2-862]	29

Binder	Binding affinity (RU)
RTHHKK [6mer-2-880]	12
RCPKKR [6mer-2-887]	18
KPEDR [5mer-1050]	31
KYMAKK [6mer-2-895]	28
KKKDKK [6mer-2-898]	16
KDWDRK [6mer-2-840]	15
RTPNRR [6mer-2-868]	30
KHTGRR [6mer-2-853]	29
KPNFRR [6mer-2-860]	31
RTSIRK [6mer-2-891]	28
RIAKRK [6mer-2-888]	17
KPPERR [6mer-2-877]	17
RFHWRR [6mer-2-894]	22
RDNPKK [6mer-2-866]	24
RDNPKR [6mer-2-890]	30
KEEHRR [6mer-2-858]	30
RKTPK [5mer-753]	30
RYAHR [5mer-1051]	28
RKHWRR [6mer-2-863]	17
KNWDR [5mer-755]	15
RTNEKR [6mer-2-883]	22
RHCNRK [6mer-2-865]	16
RKCAKK [6mer-2-864]	12
KNHNRR [6mer-2-839]	32
REHVRR [6mer-2-893]	17
REDFRR [6mer-2-837]	32
RKNER [5mer-754]	29

Binder	Binding affinity (RU)
RMDFRK [6mer-2-859]	21
KHEHK [5mer-1053]	27
RCTVRK [6mer-2-838]	13
RTCARR [6mer-2-896]	30
RNTAKK [6mer-2-849]	13
KFWWRR [6mer-2-851]	19
RCTPK [5mer-1056]	11
KDTDRK [6mer-2-861]	21
KHHEK [5mer-1055]	15
KPNHRK [6mer-2-841]	33
RMTERK [6mer-2-848]	29
RYMMR [5mer-751]	20
KEDNKR [6mer-2-876]	17
RPAHKK [6mer-2-897]	17
REWDKK [6mer-2-889]	12
RNDWR [5mer-1052]	17
KETVRR [6mer-2-878]	24
KPPGR [5mer-1049]	29
KAPDRK [6mer-2-843]	33
KDENRK [6mer-2-892]	27
RIDHRK [6mer-2-875]	13
KNTMKR [6mer-2-836]	26
KMKEKR [6mer-2-845]	14
RHDHKR [6mer-2-869]	18
RYCHKR [6mer-2-847]	22

Source: US20250011363A1, “OPTIMIZED SHORTENED PEPTIDE THAT BINDS TO ACETYLCHOLINE RECEPTOR, AND USE THEREOF” (SKINMED CO., LTD., priority 2021, published 2025)
